Measurements published in US20240042032A1 (TENEOBIO, published 2024).
Where a chain is given by its changes, count along the chain named. One block for each binder: values may come before it.

Biological target: T1, human CD19 on CD19+ cells (Raji, Daudi, Ramos, SU-DHL-10, Nalm6) (human, UniProt P15391 20-556)
T1 construct: whole, on cells; also called B-Lymphocyte Surface Antigen B4
T1 sequence (looked up): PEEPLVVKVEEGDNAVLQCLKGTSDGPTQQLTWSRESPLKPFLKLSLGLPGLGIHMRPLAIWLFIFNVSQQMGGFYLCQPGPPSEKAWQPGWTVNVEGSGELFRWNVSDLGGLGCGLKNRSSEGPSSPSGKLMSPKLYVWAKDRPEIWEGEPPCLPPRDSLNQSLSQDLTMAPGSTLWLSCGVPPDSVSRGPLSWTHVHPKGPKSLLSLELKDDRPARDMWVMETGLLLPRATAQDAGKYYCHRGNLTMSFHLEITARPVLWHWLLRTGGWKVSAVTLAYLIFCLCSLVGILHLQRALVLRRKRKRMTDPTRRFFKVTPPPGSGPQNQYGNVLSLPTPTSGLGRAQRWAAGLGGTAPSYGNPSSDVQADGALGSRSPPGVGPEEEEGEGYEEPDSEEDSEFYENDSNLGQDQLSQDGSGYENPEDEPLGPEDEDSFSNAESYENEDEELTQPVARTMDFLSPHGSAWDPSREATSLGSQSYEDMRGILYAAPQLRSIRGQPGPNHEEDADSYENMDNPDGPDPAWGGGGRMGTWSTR
Assay: cell-binding assay on CD19+ cells

binding result: binds
B1: anti-CD19 heavy chain-only antibody (UniAb) clone ID 370083 (antibody, V domains shown)
VH: QVQLVESGGGLVKPGGSLRLSCAASGFTFSDYYMSWIRQAPGKGLEWVSYMSSSGSTIYYADSVKGRFTISRDNAKNSLYLQMTSLRAEDTAVYYCARGGIAATGTWGQGTLVTVSS
notes: Heavy chain-only antibody with no light chain, tested as purified UniAb and detected with anti-human IgG; Only the VH is tied to the clone

binding result: binds
B2: anti-CD19 heavy chain-only antibody (UniAb) clone ID 370034 (antibody, V domains shown)
VH: B1 VH with N77K, T84N, T104A
notes: Heavy chain-only antibody with no light chain, tested as purified UniAb and detected with anti-human IgG; Only the VH is tied to the clone; also called HCAb 370034
